# Reference: FireProtDB (doi:10.1006/jmbi.1993.1508)
# B1: Ribonuclease, P00648 (parent)
# chain: MMKMEGIALKKRLSWISVCLLVLVSAAGMLFSTAAKTETSSHKAHTEAQVINTFDGVADYLQTYHKLPDNYITKSEAQALGWVASKGNLADVAPGKSIGGDIFSNREGKLPGKSGRTWREADINYTSGFRNSDRILYSSDWLIYKTTDHYQTFTKIR
# Variants of: B1
# Details: Bacillus amyloliquefaciens; pH 6.3; 25 °C; Urea; Fluorescence; MES 50 mM; reversible: yes; structure 1BNI; whole UniProt chain shown
Variant,ddG of mutation (higher = less stable) [kcal/mol],denaturant m value [kcal/mol/M],denaturant midpoint (higher = more stable) [M],unfolding free energy [kcal/mol]
K155R,-0.78,1.91,5,9.6
T63R,-0.78,1.98,4.8,9.6
K66R,-0.88,2.08,4.6,9.7
Q78S,-0.28,2.05,4.4,9.1
H65K,0.92,2,3.9,7.9
K113A,-0.98,2.09,4.7,9.8
G112S,-0.98,2.03,4.8,9.8
L136V,0.32,1.92,4.4,8.5
Q62I T63R K66R G112S K113A K155R,-2.98,1.86,6.34,11.8
D91E,0.32,1.84,4.6,8.5
Q62I T63R K66R,-1.98,2,5.42,10.8
K109R,0.02,2.04,4.3,8.8
I102V,0.32,1.93,4.4,8.5
Q151A,0.02,1.98,4.4,8.8
Q62I,-1.38,2.02,5,10.2
I135L,0.02,1.98,4.4,8.8
T126V,-0.18,1.91,4.7,9
S132A,-0.28,2.02,4.51,9.1
